PMC4100090, “A Simple Three-Step Method for Design and Affinity Testing of New Antisense Peptides: An Example of Erythropoietin” (International Journal of Molecular Sciences, 2014)

T1: Erythropoietin P2 epitope peptide (Homo sapiens)
T1 chain: LKLYTGEACRTGDR


Columns and labels:
[1] = circular dichroism spectroscopy; format: physicochemical; conditions: 1 mg/mL peptide, phosphate buffer 0.1 M, pH = 7.4, 25 °C, 1 cm cuvette, averages of five scans; negative peak around 200 nm
Method: The circular dichroism spectra were measured with Jasco J-815 CD spectrometer equipped with thermostated cell holder in a rectangular 1 cm cuvette (Jasco Inc., Easton, MD, USA). Conditions: concentration of peptides = 1 mg/mL, phosphate buffer = 0.1 M, pH = 7.4, temperature = 25 °C. Spectra are presented as averages of five scans, and corrected for buffer spectrum.

[2] = molecular target: T1, Erythropoietin P2 epitope peptide; experiment: microscale thermophoresis
[3] = molecular target: T1, Erythropoietin P2 epitope peptide; experiment: tryptophan fluorescence titration

Row | secondary structure by CD spectroscopy [1] | Kd [2] [µM] | Kd [3] [µM] | Molecule
1 | random coil structure |  |  | LKLYTGEACRTGDR
2 |  | 816 | 850 | DFDIWPLRTAWPLS [EPO-P2 antisense peptide]
